Measured values taken from publication PMC4507941 (PLoS ONE, 2015).
Entries after “also recorded” stand apart in the source; their conditions may differ. Where two headings read alike, the source gives them in different places. Where no end group is shown, it is not given here.

Columns and labels:
pitrilysin [1] = biological target: T1, pitrilysin (Homo sapiens, UniProt Q5JRX3); conditions: ref [23], cited from earlier work
T1 construct: made in house; host or cells: Sf9 cells
T1 sequence (Q5JRX3 29-1037): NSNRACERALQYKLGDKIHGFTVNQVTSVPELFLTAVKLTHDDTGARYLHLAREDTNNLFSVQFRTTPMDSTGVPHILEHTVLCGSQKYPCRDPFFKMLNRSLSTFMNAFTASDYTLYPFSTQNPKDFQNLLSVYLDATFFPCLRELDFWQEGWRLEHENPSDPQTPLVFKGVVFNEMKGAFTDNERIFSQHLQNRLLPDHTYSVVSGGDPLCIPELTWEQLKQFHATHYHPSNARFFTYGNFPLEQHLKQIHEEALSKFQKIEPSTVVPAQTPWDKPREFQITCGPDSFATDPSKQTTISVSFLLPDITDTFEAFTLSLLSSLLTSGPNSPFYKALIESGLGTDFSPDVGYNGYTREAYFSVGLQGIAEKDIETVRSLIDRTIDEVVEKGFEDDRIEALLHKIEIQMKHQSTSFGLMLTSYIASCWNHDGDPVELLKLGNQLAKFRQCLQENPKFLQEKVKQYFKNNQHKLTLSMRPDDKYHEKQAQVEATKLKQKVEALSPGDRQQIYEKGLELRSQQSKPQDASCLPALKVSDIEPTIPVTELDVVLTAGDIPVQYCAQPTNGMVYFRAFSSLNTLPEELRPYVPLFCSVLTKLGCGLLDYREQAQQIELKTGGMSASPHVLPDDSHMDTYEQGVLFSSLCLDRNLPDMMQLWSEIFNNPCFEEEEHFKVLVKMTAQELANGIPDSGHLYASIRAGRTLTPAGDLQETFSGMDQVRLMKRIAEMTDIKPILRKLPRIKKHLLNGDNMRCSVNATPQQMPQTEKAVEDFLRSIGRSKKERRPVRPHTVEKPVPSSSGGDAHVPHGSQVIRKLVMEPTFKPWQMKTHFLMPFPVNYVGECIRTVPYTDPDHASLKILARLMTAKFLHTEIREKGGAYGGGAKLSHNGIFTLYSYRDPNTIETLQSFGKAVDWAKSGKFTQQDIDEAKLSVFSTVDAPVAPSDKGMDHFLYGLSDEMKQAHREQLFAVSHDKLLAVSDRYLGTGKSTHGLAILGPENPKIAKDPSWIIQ
Description: (§1) Table 1 Comparison of enzymatic characters of pitrilysin and IDE towards different substrates. | column: kcat (min^-1); KM (μM); kcat/KM (min^-1μM^-1) || Having established IAPP as a substrate of pitrilysin, the kinetic properties of the reaction were determined. The rate of hIAPP hydrolysis was determined by measuring the disappearance of the substrate by HPLC, while k cat was determined based on the linear initial rate of hIAPP hydrolysis at a saturating hIAPP concentration (20 μM) using a molecular mass of 117 kDa for pitrilysin. The KM for hIAPP was determined by using it as an alternate substrate inhibitor of the hydrolysis of the fluorogenic peptide Abz-GGYRRGQ-EDDnp. The kcat and KM values of pitrilysin with hIAPP are 13.5 ± 0.1 m ...

[2] = test system: Insulin-degrading enzyme (IDE); conditions: cited from earlier work
Description: Table 1 Comparison of enzymatic characters of pitrilysin and IDE towards different substrates. | column: kcat (min^-1); KM (μM); kcat/KM (min^-1μM^-1)

recombinant pitrilysin = experiment: 40 nM pitrilysin in 50 mM Tris/HCl buffer (pH 7.4) containing 200 mM NaCl; conditions: human, 37°C, up to 60'
pitrilysin [3] = experiment: 40 nM pitrilysin added to hIAPP preincubated at 37°C to induce oligomer formation; conditions: human, up to 1hr
pitrilysin [4] = experiment: pitrilysin (400 nM) added to hIAPP oligomers generated with rat cardiac myocytes or from HIP rat cardiac myocytes; conditions: human, 37°C, up to 1hr
pitrilysin [5] = biological target: T1, pitrilysin; experiment: Cleavage of peptide substrates by recombinant pitrilysin (HPLC substrate disappearance; KM as alternate substrate inhibitor of a fluorogenic peptide); format: biochemical; conditions: for Degradation of monomeric IAPP by pitrilysin: monomeric peptide 20 μM, HPLC
Description: Pitrilysin was produced in Sf9 cells (ATCC, Manassas, VA, USA) and purified as described.. The purity of recombinant pitrilysin is greater than 97% as judged from Coomassie blue stained SDS-PAGE gels using NIH ImageJ software (S1 Fig).
Monomeric hIAPP (20 μM) was incubated with 40 nM pitrilysin in 50 mM Tris/HCl buffer (pH 7.4) containing 200 mM NaCl at 37°C for various times and analyzed by reverse phase HPLC [22, 23]. hIAPP and its cleavage products were collected manually and identified by mass spectrometry.
as §1, with “Having” for “Table 1 Comparison of enzymatic characters of pitrilysin and IDE towards different substrates. | column: kcat (min^-1); KM (μM); kcat/KM (min^-1μM^-1) || Having”, “min^-1 and 0.38 ± 0.01 μM, respectively (Table 1).” for “m ...”

[6] = test system: Insulin-degrading enzyme (IDE); experiment: Cleavage of peptide substrates by insulin-degrading enzyme (IDE), determined as for pitrilysin; format: biochemical; conditions: mean ± SEM
Description: as §1, with “Having” for “Table 1 Comparison of enzymatic characters of pitrilysin and IDE towards different substrates. | column: kcat (min^-1); KM (μM); kcat/KM (min^-1μM^-1) || Having”, “min^-1 and 0.38 ± 0.01 μM, respectively (Table 1).” for “m ...”
We therefore compared the enzymatic properties of these two enzymes in terms of hIAPP degradation. The kcat and KM values for IDE with hIAPP were determined as above yielding values of 294 ± 0.4 min^-1 and 3.11 ± 0.20 μM, respectively. […] (Table 1). Thus relative to IDE, pitrilysin is a more specific IAPP degrading enzyme.

pitrilysin [7] = biological target: T1, pitrilysin; experiment: In vitro cleavage of oligomeric hIAPP by pitrilysin (SDS-PAGE, Western blot); format: biochemical; conditions: hIAPP oligomers (12, 28, 36, 40 kDa and large oligomers), 40 or 400 nM pitrilysin, 37°C, 1 hr
Description: hIAPP was incubated at 37°C for 1 hr. with gentle shaking to induce hIAPP oligomerization. To produce low molecular weight oligomers, hIAPP oligomerization was initiated in saline solution at 37°C using 50 μM recombinant hIAPP and then incubated with myocytes for 2 hours at room temperature. Similarly cardiac myocytes from hIAPP expressing rats (HIP rats) contain amylin oligomers and thus both were used. Pitrilysin was added to oligomers and incubated for 1 hour at 37°C. The reaction was then subjected to SDS-PAGE and Western blotting with A11 antisera for large oligomer or with mouse anti-hIAPP for detection of monomers and small oligomers. Adult cardiac myocytes were isolated from wild-type Sprague-Dawley rats and from HIP rats as described.
Oligomers of hIAPP were generated from hIAPP incubated with rat cardiac myocytes and then incubated with pitrilysin (400 nM) at 37°C for 1 hr. Reactions were analyzed by Western blot analysis using mouse monoclonal anti-human amylin antibody E-5. b. […] Reactions were analyzed by Western blots using rabbit anti-IAPP that recognizes monomeric IAPP or rabbit anti-oligomer antibody A11. rIAPP (20 μM) was treated at the same condition as a negative control.

[8] = 20 μM hIAPP, 40 nM pitrilysin, 37°C, HPLC peaks identified by mass spectrometry
[9] = 40 nM pitrilysin, 50 mM Tris/HCl pH 7.4, 200 mM NaCl, 37°C

For Insulin, which Km (pitrilysin [1]) is on record?
Its Km is 54.5 ± 5.5 µM.

What about the kcat (pitrilysin [1]) of the same substance?
The kcat was 0.0033 ± 0 s⁻¹.

And the kcat/KM (pitrilysin [1])?
Its kcat/KM is 0.0037 min^-1μM^-1.

And the Km ([2]; ref [44])?
Its Km is 0.13 ± 0.02 µM.

What about the kcat ([2]; ref [44]) of the same substance?
The kcat was 0.00933 ± 0.00017 s⁻¹.

What about the kcat/KM ([2]; ref [44]) of the same substance?
Its kcat/KM is 4.3 min^-1μM^-1.

With “KCNTATCATQRLANFLVHSSNNFGAILSSTNVGSNTY-NH2” as the substance, how does the cleaved bond (recombinant pitrilysin) read?
Its cleaved bond is “Phe15-Leu16, first_seen; also recorded: Gly24-Ala25, major; also recorded: Ala25-Ile26, major; also recorded: Arg11-Leu12, minor; also recorded: Leu12-Ala13, minor; also recorded: Ala13-Asn14, minor; also recorded: Asn14-Phe15, minor”.

What about the not cleaved (pitrilysin [3]) of the same substance?
The not cleaved was “not able to degrade large hIAPP oligomers (1hr)”.

What about the not cleaved (pitrilysin [4]) of the same substance?
Its not cleaved is “inability of pitrilysin to reduce the amount of hIAPP oligomers of 12 kDa, 28 kDa, 36 kDa, or 40 kDa (1 hr)”.

Which results are given for amyloid β peptide 1–40 [Aβ 40]?
kcat/KM (pitrilysin [1]; listed as Aβ1–40): 1.94 min^-1μM^-1; Km (pitrilysin [1]): 1.7 ± 0.1 µM; kcat (pitrilysin [1]): 0.055 ± 0.0017 s⁻¹; Km ([2]; ref [43]): 0.87 ± 0.1 µM; kcat ([2]; ref [43]): 3.68 ± 0.183 s⁻¹; kcat/KM ([2]; ref [43]): 250 min^-1μM^-1

For “islet amyloid polypeptide (KCNTATCATQRLANFLVHSSNNFGAILSSTNVGSNTY; not fully specified (C-terminus); cysteine pairing not given here) [hIAPP, Human islet amyloid polypeptide (IAPP, amylin), from Anaspec; substrate of pitrilysin and IDE]”, which “Initial cleavage sites on hIAPP by pitrilysin” value (pitrilysin [5]; [8]) is on record?
The value was “Phe^15-Leu^16, Gly^24-Ala^25 and Ala^25-Ile^26”.

What about the “Secondary (subsequent) cleavage sites on hIAPP by pitrilysin” value (pitrilysin [5]; [8]) of the same substance?
The value was “Arg^11-Leu^12, Leu^12-Ala^13, Ala^13-Asn^14 and Asn^14-Phe^15”.

And the “Degradation of monomeric IAPP by pitrilysin” value (pitrilysin [5]; [9])?
Its value is “hIAPP degradation is indeed catalyzed by pitrilysin”.

And the Km (pitrilysin [5]; pitrilysin, hIAPP as alternate substrate inhibitor of hydrolysis of fluorogenic peptide Abz-GGYRRGQ-EDDnp, mean ± SEM)?
Its Km is 0.38 ± 0.01 µM.

What about the kcat (pitrilysin [5]; pitrilysin, linear initial rate of hIAPP hydrolysis at saturating 20 μM, substrate disappearance by HPLC, 50 mM Tris/HCl pH 7.4, 200 mM NaCl, 37°C, molecular mass 117 kDa, mean ± SEM) of the same substance?
Its kcat is 0.225 ± 0.0017 s⁻¹.

What about the kcat ([6]; determined as for pitrilysin (HPLC, saturating hIAPP)) of the same substance?
Its kcat is 4.9 ± 0.0067 s⁻¹.

And the Km ([6]; determined as for pitrilysin (alternate substrate inhibitor))?
Its Km is 3.11 ± 0.2 µM.

What about the “Degradation of oligomeric hIAPP by pitrilysin” value (pitrilysin [7]) of the same substance?
The value was “not able to degrade; also recorded: does not degrade”.

With “rIAPP: rodent (rat) islet amyloid polypeptide, does not form oligomers” as the substance, how does the “Degradation of monomeric IAPP by pitrilysin” value (pitrilysin [5]; [9]) read?
Its value is “degrades monomeric rat IAPP”.
